B1: 2x MS2 aptamer, native U (structured_RNA)
RNA: GGGAGCAGGUGAGGAUCACCCAUCUGCCACGAGCGAGGUGAGGAUCACCCAUCUCGCUCGUGUUCCC
B2: 2x MS2 aptamer, m1Ψ (structured_RNA)
RNA: B1 RNA
modifications: all U replaced by N1-methylpseudouridine

Legend:
MS2CP (MS2 coat protein) [1] = target: T1, MS2CP (MS2 coat protein) (bacteriophage MS2, UniProt P03612 2-130); test: EMSA; 6 mM Mg2+, 2 mM spermidine; EMSA, 1 uM RNA, 4 C 30 min, 12% native PAGE at 4 C; 1x from 5x buffer: U1A 20 mM HEPES pH 7.5, 80 mM KCl, 20 mM NaCl, 2 mM DTT; MS2CP 40 mM HEPES pH 7.5, 10 mM; settings: protein: recombinant; tags: His; chain copies: 2; two hairpins
T1 sequence (P03612 2-130): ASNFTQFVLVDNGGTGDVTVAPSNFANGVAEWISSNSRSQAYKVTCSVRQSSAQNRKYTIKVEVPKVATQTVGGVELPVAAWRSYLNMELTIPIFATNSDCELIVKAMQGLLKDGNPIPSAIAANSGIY

MS2CP (MS2 coat protein) [2] = target: T1, MS2CP (MS2 coat protein); test: EMSA; 6 mM Mg2+, 2 mM spermidine; affinity similar to native U; EMSA, 1 uM RNA, 4 C 30 min, 12% native PAGE at 4 C; 1x from 5x buffer: U1A 20 mM HEPES pH 7.5, 80 mM KCl, 20 mM NaCl, 2 mM DTT; MS2CP 40 mM HEPES pH 7.5, 10 mM; settings: protein: recombinant; tags: His; chain copies: 2; two hairpins

Row | Binder | binding result (MS2CP (MS2 coat protein) [1]) | binding result (MS2CP (MS2 coat protein) [2])
1 | B1 | binds | 
2 | B2 |  | binds

Reference: paper PMC7102939, “N 1-Methylpseudouridine substitution enhances the performance of synthetic mRNA switches in cells”
